# Ends that are not written are not given here.
# Molecular target: T1, Soluble recombinant human urokinase receptor (suPAR) (human, UniProt Q03405 23-299, biotinylated in the plate assays (sites not given))
# Experiment: uPAR receptor binding assay
# T1 sequence (Q03405 23-299): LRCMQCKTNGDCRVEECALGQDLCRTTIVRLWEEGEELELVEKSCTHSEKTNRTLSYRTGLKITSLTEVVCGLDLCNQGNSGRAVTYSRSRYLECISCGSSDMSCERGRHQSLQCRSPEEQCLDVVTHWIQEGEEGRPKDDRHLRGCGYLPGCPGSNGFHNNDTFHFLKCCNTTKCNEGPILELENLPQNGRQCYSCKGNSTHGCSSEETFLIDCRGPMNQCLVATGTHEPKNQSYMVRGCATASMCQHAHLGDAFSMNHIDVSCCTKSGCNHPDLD
row,IC50,Binder
1,> 10000 nM,AESTYHHLSLGYMYTLN-NH2 [Peptide 25 (synthetic peptide of clone 25)]
2,10 nM,AEPMPHSLNFSQYLWYT-NH2 [Clone 20 peptide]
3,250 nM,CLNGGTAVSNKYFSNIHWCN [uPA13-32 peptide (amino acids 13-32 of human urokinase with Cys19 converted to Ala)]

# Molecular target: T1, Soluble recombinant human urokinase …
# Experiment: uPAR receptor binding assay
# Remark: another data set of the same source
row,IC50,Binder
1,> 10000 nM,AESTYHHLSLGYMYTLN-NH2 [Peptide 25 (synthetic peptide of clone 25)]
2,10 nM,AEPMPHSLNFSQYLWYT-NH2 [Clone 20 peptide]
3,250 nM,CLNGGTAVSNKYFSNIHWCN [uPA13-32 peptide (amino acids 13-32 of human urokinase with Cys19 converted to Ala)]

# Source: patent publication US20040265797A1 (published 2004)
